Test results as given in the supplement of paper PMC10724198.
± gives the standard deviation of the averaged measurements.

Assays:
Saccharomyces cerevisiae [1] = assay: protein stability index of tFT-peptide fusion (C-terminal peptide) (PSI (0-1 scale)); higher = more stable (slower turnover); conditions: genetic background: wild type; temperature: 30 C
Saccharomyces cerevisiae [2] = assay: as above
Method: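 MPS profiling in S. cerevisiae of the tFT-X12 degron library: putative degron peptides plus stable controls, 12 aa, fused to the C-terminus of a sfGFP-mCherry timer. Cells are FACS-sorted into 8 mCherry/sfGFP bins and deep-sequenced. PSI runs from 0 (unstable) to 1 (stable). Backgrounds are wild type, das1Δ and doa10Δ at 30 °C, and wild type, das1Δ, cdc34-1 and cdc53-1 at 37 °C; 2-3 technical replicates each.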

[3] = genetic background: cdc34-1, temperature: 37 C
[4] = genetic background: cdc53-1, temperature: 37 C
[5] = genetic background: das1 deletion, temperature: 30 C
[6] = genetic background: das1 deletion, temperature: 37 C
[7] = genetic background: doa10 deletion, temperature: 30 C
[8] = genetic background: wild type, temperature: 30 C
[9] = genetic background: wild type, temperature: 37 C
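Note: PSI is a weighted mean of sequencing reads over stability bins, variants kept only with over 10 reads, mCherry proximal and sfGFP distal, peptide attached via GGGS linker.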

Row | Sequence | protein stability index (Saccharomyces cerevisiae [1]) | protein stability index (Saccharomyces cerevisiae [2]; [3]) | protein stability index (Saccharomyces cerevisiae [2]; [4]) | protein stability index (Saccharomyces cerevisiae [2]; [5]) | protein stability index (Saccharomyces cerevisiae [2]; [6]) | protein stability index (Saccharomyces cerevisiae [2]; [7]) | protein stability index (Saccharomyces cerevisiae [2]; [8]) | protein stability index (Saccharomyces cerevisiae [2]; [9])
1 | FAVHHLRYILLV | 0.106 ± 0.016 | 0.227 ± 0.029 | 0.325 ± 0.019 | 0.316 ± 0.024 | 0.436 ± 0.0073 | 0.0929 ± 0.009 | 0.0847 ± 0.024 | 0.129 ± 0.016
2 | FCCSVFCFLCLY | 0.504 ± 0.049 | 0.562 ± 0.044 | 0.548 ± 0.02 | 0.505 ± 0.027 | 0.572 ± 0.0057 | 0.5442 ± 0.001 | 0.492 ± 0.0071 | 0.518 ± 0.019
3 | FCGLLGVCLVMG | 0.326 ± 0.032 | 0.208 ± 0.042 | 0.298 ± 0.006 | 0.243 ± 0.032 | 0.389 ± 0.013 | 0.185 ± 0.016 | 0.221 ± 0.03 | 0.354 ± 0.011
4 | FCHFSSLVSVSL | 0.577 ± 0.18 | 0.614 ± 0.011 | 0.6089 ± 0.0042 | 0.498 ± 0.024 | 0.6377 ± 0.0016 | 0.494 ± 0.021 | 0.496 ± 0.018 | 0.611 ± 0.025
5 | FCLLRYPFVGVL | 0.415 ± 0.013 | 0.625 ± 0.047 | 0.683 ± 0.025 | 0.554 ± 0.022 | 0.677 ± 0.025 | 0.272 ± 0.0032 | 0.318 ± 0.0089 | 0.514 ± 0.0069
6 | FCSNLLSMVIAV | 0.432 ± 0.014 | 0.344 ± 0.0055 | 0.382 ± 0.014 | 0.32 ± 0.032 | 0.4315 ± 0.0038 | 0.265 ± 0.012 | 0.3 ± 0.012 | 0.438 ± 0.029
7 | FCVGVLFSCLVF | 0.394 ± 0.019 | 0.338 ± 0.041 | 0.412 ± 0.032 | 0.313 ± 0.021 | 0.4295 ± 0.0031 | 0.286 ± 0.0042 | 0.301 ± 0.019 | 0.43 ± 0.023
8 | FCVGVVIQLSGV | 0.415 ± 0.0067 | 0.435 ± 0.053 | 0.491 ± 0.034 | 0.311 ± 0.035 | 0.499 ± 0.0053 | 0.296 ± 0.0032 | 0.326 ± 0.021 | 0.473 ± 0.014
9 | FCVLLFYCFFFF | 0.356 ± 0.03 | 0.322 ± 0.011 | 0.322 ± 0.099 | 0.276 ± 0.039 | 0.38 ± 0.0096 | 0.314 ± 0.012 | 0.273 ± 0.032 | 0.335 ± 0.041
10 | FERKVHSRWLFF | 0.23 ± 0.038 | 0.56888 ± 0.00051 | 0.745 ± 0.022 | 0.658 ± 0.011 | 0.7407 ± 0.00086 | 0.0981 ± 0.019 | 0.15 ± 0.016 | 0.437 ± 0.018
11 | FFATFVPSFLLC | 0.407 ± 0.033 | 0.606 ± 0.023 | 0.674 ± 0.048 | 0.556 ± 0.02 | 0.6776 ± 0.00086 | 0.268 ± 0.0089 | 0.305 ± 0.022 | 0.511 ± 0.021
12 | FFCYFFEFFICG | 0.382 ± 0.017 | 0.326 ± 0.054 | 0.419 ± 0.013 | 0.339 ± 0.028 | 0.468 ± 0.0082 | 0.337 ± 0.015 | 0.323 ± 0.011 | 0.441 ± 0.025
13 | FFFVFLGLRSVF | 0.387 ± 0.049 | 0.348 ± 0.019 | 0.358 ± 0.084 | 0.357 ± 0.04 | 0.577 ± 0.11 | 0.339 ± 0.011 | 0.292 ± 0.016 | 0.434 ± 0.012
14 | FFGFFWLFLLFC | 0.267 ± 0.0029 | 0.239 ± 0.022 | 0.222 ± 0.005 | 0.291 ± 0.021 | 0.364 ± 0.016 | 0.318 ± 0.019 | 0.202 ± 0.033 | 0.257 ± 0.02
15 | FFIVGACAYVFA | 0.319 ± 0.033 | 0.223 ± 0.036 | 0.30494 ± 0.00019 | 0.228 ± 0.031 | 0.385 ± 0.0094 | 0.204 ± 0.013 | 0.231 ± 0.029 | 0.37 ± 0.015
16 | FFLLLVSVLSGW | 0.316 ± 0.038 | 0.177 ± 0.035 | 0.255 ± 0.047 | 0.198 ± 0.017 | 0.3301 ± 0.00052 | 0.152 ± 0.02 | 0.185 ± 0.029 | 0.2942 ± 0.00091
17 | FFPFHPHVLRLL | 0.282 ± 0.053 | 0.421 ± 0.044 | 0.433 ± 0.014 | 0.477 ± 0.039 | 0.6373 ± 0.0012 | 0.215 ± 0.0068 | 0.203 ± 0.026 | 0.324 ± 0.014
18 | FFRAYLQMYVTD | 0.362 ± 0.018 | 0.412 ± 0.0053 | 0.471 ± 0.021 | 0.413 ± 0.029 | 0.4057 ± 0.0032 | 0.423 ± 0.032 | 0.416 ± 0.043 | 0.412 ± 0.0073
19 | FFVFLVLFCLWV | 0.391 ± 0.076 | 0.278 ± 0.027 | 0.259 ± 0.065 | 0.302 ± 0.035 | 0.397 ± 0.008 | 0.321 ± 0.022 | 0.261 ± 0.031 | 0.356 ± 0.0055
20 | FFVFMAKLRTCN | 0.0754 ± 0.063 | 0.455 ± 0.042 | 0.536 ± 0.034 | 0.444 ± 0.025 | 0.594 ± 0.0073 | 0.112 ± 0.019 | 0.127 ± 0.025 | 0.198 ± 0.029

Row | Sequence | protein stability index (Saccharomyces cerevisiae [1]) | protein stability index (Saccharomyces cerevisiae [2]; [3]) | protein stability index (Saccharomyces cerevisiae [2]; [4]) | protein stability index (Saccharomyces cerevisiae [2]; [5]) | protein stability index (Saccharomyces cerevisiae [2]; [6]) | protein stability index (Saccharomyces cerevisiae [2]; [7]) | protein stability index (Saccharomyces cerevisiae [2]; [8]) | protein stability index (Saccharomyces cerevisiae [2]; [9])
21 | FFVFYICSCFLV | 0.4 ± 0.047 | 0.444 ± 0.037 | 0.476 ± 0.0043 | 0.389 ± 0.02 | 0.4843 ± 0.0041 | 0.457 ± 0.0071 | 0.372 ± 0.0097 | 0.442 ± 0.024
22 | FFYVFPFFIFRF | 0.406 ± 0.065 | 0.338 ± 0.046 | 0.31 ± 0.031 | 0.364 ± 0.04 | 0.521 ± 0.017 | 0.505 ± 0.025 | 0.362 ± 0.058 | 0.449 ± 0.0095
23 | FGLRVHPIVFIF | 0.128 ± 0.034 | 0.289 ± 0.032 | 0.269 ± 0.0053 | 0.374 ± 0.016 | 0.488 ± 0.018 | 0.0775 ± 0.022 | 0.0769 ± 0.016 | 0.0909 ± 0.047
24 | FGLVAYPLWYIS | 0.18 ± 0.013 | 0.504 ± 0.04 | 0.765 ± 0.0058 | 0.668 ± 0.014 | 0.777 ± 0.0099 | 0.0782 ± 0.031 | 0.0991 ± 0.0037 | 0.105 ± 0.029
25 | FGSFVVWGVWWG | 0.508 ± 0.018 | 0.458 ± 0.0071 | 0.4975 ± 0.0029 | 0.352 ± 0.036 | 0.563 ± 0.038 | 0.352 ± 0.015 | 0.356 ± 0.032 | 0.5069 ± 0.0015
26 | FGVLGCAWVWVG | 0.157 ± 0.045 | 0.394 ± 0.0091 | 0.528 ± 0.032 | 0.465 ± 0.033 | 0.625 ± 0.017 | 0.0888 ± 0.019 | 0.114 ± 0.021 | 0.103 ± 0.037
27 | FICLLFSCVYLG | 0.41 ± 0.072 | 0.51 ± 0.025 | 0.535 ± 0.013 | 0.464 ± 0.026 | 0.593 ± 0.039 | 0.3776 ± 0.0014 | 0.382 ± 0.026 | 0.5293 ± 0.005
28 | FIGVLVFSWLLF | 0.37 ± 0.03 | 0.244 ± 0.029 | 0.371 ± 0.0074 | 0.241 ± 0.035 | 0.412 ± 0.021 | 0.215 ± 0.0034 | 0.235 ± 0.024 | 0.381 ± 0.021
29 | FKVTWGLFYGSV | 0.44 ± 0.061 | 0.551 ± 0.098 | 0.653 ± 0.048 | 0.505 ± 0.034 | 0.581 ± 0.013 | 0.535 ± 0.059 | 0.548 ± 0.026 | 0.595 ± 0.011
30 | FLCVLYFFLCVE | 0.417 ± 0.18 | 0.218 ± 0.00042 | 0.3209 ± 0.0031 | 0.253 ± 0.03 | 0.404 ± 0.055 | 0.195 ± 0.01 | 0.224 ± 0.015 | 0.334 ± 0.022
31 | FLQIIIFSRVLF | 0.467 ± 0.024 | 0.455 ± 0.013 | 0.543 ± 0.059 | 0.377 ± 0.017 | 0.549 ± 0.0081 | 0.366 ± 0.026 | 0.364 ± 0.031 | 0.52 ± 0.011
32 | FLRWRVWVVVGW | 0.234 ± 0.0043 | 0.187 ± 0.023 | 0.259 ± 0.024 | 0.199 ± 0.035 | 0.358 ± 0.027 | 0.18 ± 0.012 | 0.181 ± 0.021 | 0.332 ± 0.039
33 | FLSRLVGFYFVV | 0.361 ± 0.021 | 0.606 ± 0.018 | 0.69 ± 0.0093 | 0.587 ± 0.026 | 0.733 ± 0.022 | 0.313 ± 0.006 | 0.312 ± 0.014 | 0.463 ± 0.014
34 | FLSVPHLLFLFI | 0.511 ± 0.017 | 0.608 ± 0.0063 | 0.634 ± 0.016 | 0.494 ± 0.021 | 0.619 ± 0.0054 | 0.49 ± 0.016 | 0.4689 ± 0.0032 | 0.6023 ± 0.0038
35 | FLTLQSPIQYIV | 0.171 ± 0.015 | 0.584 ± 0.032 | 0.732 ± 0.013 | 0.646 ± 0.053 | 0.7289 ± 0.0016 | 0.105 ± 0.0049 | 0.117 ± 0.017 | 0.124 ± 0.0086
36 | FLTSPSVWRYLF | 0.153 ± 0.036 | 0.623 ± 0.026 | 0.7196 ± 0.0049 | 0.693 ± 0.032 | 0.755 ± 0.0045 | 0.125 ± 0.046 | 0.139 ± 0.017 | 0.227 ± 0.017
37 | FLYIPLYCRLSF | 0.256 ± 0.027 | 0.286 ± 0.034 | 0.3 ± 0.006 | 0.302 ± 0.031 | 0.433 ± 0.019 | 0.209 ± 0.018 | 0.147 ± 0.028 | 0.343 ± 0.011
38 | FPTLHPAIPYLC | 0.458 ± 0.042 | 0.643 ± 0.013 | 0.672 ± 0.057 | 0.616 ± 0.017 | 0.7116 ± 0.0013 | 0.237 ± 0.01 | 0.282 ± 0.022 | 0.468 ± 0.02
39 | FRFGAKISLIVL | 0.368 ± 0.064 | 0.569 ± 0.019 | 0.565 ± 0.014 | 0.47 ± 0.018 | 0.584 ± 0.015 | 0.189 ± 0.0063 | 0.225 ± 0.033 | 0.42 ± 0.034
